± gives the standard deviation of the averaged measurements.

This is an account of results in the supplement of paper PMC10126150.
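Further: ATP exposure 15 min at 22 °C before imaging.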

This series concerns ATP. The series can be described thus: switch fluorescence ratio, 500 uM ATP over buffer (Cy3 cluster intensity, sum of 5 cycles each) (fold (ratio)); higher = stronger signal-on switching upon ATP binding; sequences stand for … in TCGTCGGCAGCGTCAGATGTGTATAAGAGACAGTTTTTTTTTTTTTTTTTTTTTTTTT…TC. Conditions: aptamer strand: ATP DNA aptamer (quencher-CACCTGGGGGAGTATTGCGGAGGAAGG + anchor), 100 nM annealed; ATP concentration: 500 uM. An outline of the steps: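 Values give the fluorescence ratio for each switch-domain sequence, averaged from per-cluster ratios of summed target-cycle to summed buffer-cycle Cy3 intensity. The Cy3-labelled switching-strand clusters sat on a modified Illumina MiSeq flow-cell, were annealed to 100 nM quencher-labelled ATP aptamer, and were imaged in selection buffer, then after 15 min with 500 uM ATP at 22 °C. Five cycles ran with NaOH stripping and re-annealing between them, and clusters outside 100-1000 RFU were excluded.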
In the case of TTATCTAGGA, the switch fluorescence ratio stood at 1 ± 0.028. In the case of GGGAGAATGG it was 0.98 ± 0.028.

As for CGGAATAGGG, the switch fluorescence ratio came to 1.07 ± 0.052. CGTATGGGAG: the switch fluorescence ratio was determined as 0.9452 ± 0.0036. For GGGGTATATC, the switch fluorescence ratio is 1 ± 0.024. For the sequence AATTAGGCGG, the switch fluorescence ratio turned out to be 1.02 ± 0.02. Take CCGTACGTTT: the switch fluorescence ratio was determined as 1.24 ± 0.024. For GATAAGTCAG, the switch fluorescence ratio is 0.989 ± 0.018. Regarding GATAACCATG, the switch fluorescence ratio amounted to 0.9933 ± 0.0035. For TTGAGGTTAT, the switch fluorescence ratio was 1.02 ± 0.061. With TGTGTAAGAC, the switch fluorescence ratio came to 1.16 ± 0.022. In the case of TGGTTTTTAA it was 0.977 ± 0.052. With GCACGTGGTC, the switch fluorescence ratio came to 1.04 ± 0.019.

For ATTTTAAGTT, the switch fluorescence ratio is 0.99 ± 0.034. The figure for TTTAGATCAA is 1 ± 0.0019; for CGACGTGATG it is 1.227 ± 0.0082.

For AATTGGTGGG, the switch fluorescence ratio amounted to 0.9916 ± 0.0084. Take GGTAGGGGTT: the switch fluorescence ratio was determined as 1 ± 0.053.

With GATGTATGTT, the switch fluorescence ratio is 0.978 ± 0.037. In the case of TAGGGGAGCT it was 0.974 ± 0.067; in that of GTTGGGCAGC, 1.046 ± 0.0053. Take CAATGGGGTA: the switch fluorescence ratio stood at 0.992 ± 0.012.

Turning to AGGGCATTCG, the switch fluorescence ratio came to 0.979 ± 0.026. In the case of TTTCAATTTA, the switch fluorescence ratio was 0.996 ± 0.011. For ATGTTAGGCT, the switch fluorescence ratio amounted to 0.998 ± 0.025.

As to TTGAGATCCT, the switch fluorescence ratio turned out to be 1.027 ± 0.0084. For TTCGTCAACA, the switch fluorescence ratio came to 1.03 ± 0.046. The figure for ATTGACGGCA is 1.02 ± 0.032; for TTATCCGAGA it is 1.04 ± 0.019; for CGGTTTGGGA it is 0.994 ± 0.035. As for TGGGCTATAG, the switch fluorescence ratio stood at 1.03 ± 0.032. As for TAATAGGGGC, the switch fluorescence ratio is 0.991 ± 0.05.

For the sequence AAAAGATCAT, the switch fluorescence ratio is 0.999 ± 0.012. For the sequence TGGGAGGTAC, the switch fluorescence ratio was determined as 1.24 ± 0.3. As to GACGGGATCT, the switch fluorescence ratio came to 1.042 ± 0.0092. The figure for AGATTTTGTG is 0.9922 ± 0.0038; for ATTTTGAACA it is 1.019 ± 0.0062; for GGATAACGGG it is 1.02 ± 0.023. Regarding ACTTGACCCG, the switch fluorescence ratio worked out at 1.08 ± 0.064. In the case of GGTCGCCTCA, the switch fluorescence ratio came out at 0.9687 ± 0.0086.

As to AGTTAGGAAG, the switch fluorescence ratio stood at 0.973 ± 0.011. For the sequence CGTGTTTGTG, the switch fluorescence ratio worked out at 0.999 ± 0.067. As to CGGGAGCTGG, the switch fluorescence ratio amounted to 1.02 ± 0.023. For GGATTAAATT, the switch fluorescence ratio was determined as 0.9996 ± 0.0019. Regarding CGAGCTTGAA, the switch fluorescence ratio came out at 1.03 ± 0.022. For GGGGGAAAGG, the switch fluorescence ratio was 1 ± 0.025.

Turning to GGGGTGGTTG, the switch fluorescence ratio is 0.986 ± 0.036. With GGTTTCGCGA, the switch fluorescence ratio worked out at 1.07 ± 0.053.

On to TTTCGTGCGG, for which the switch fluorescence ratio is 1 ± 0.015. Take GCGGGCAATG: the switch fluorescence ratio is 1.052 ± 0.0089.

In the case of GTTAAATTCA, the switch fluorescence ratio amounted to 1 ± 0.024. For AGATTGGGCA, the switch fluorescence ratio was 0.981 ± 0.011. In the case of CAGACAGTTT, the switch fluorescence ratio worked out at 0.993 ± 0.013. On to CGGCGGCCCT, for which the switch fluorescence ratio was 1.005 ± 0.0092. Consider TTCAGCTTGG, for which the switch fluorescence ratio was 0.99 ± 0.015.

As for AAGCGCGACG, the switch fluorescence ratio worked out at 0.991 ± 0.027.

As to TTAAAATTGC, the switch fluorescence ratio stood at 1.08 ± 0.064. With AATTTTGTGG, the switch fluorescence ratio was 1.03 ± 0.014.

For the sequence TATGTGTTTT, the switch fluorescence ratio turned out to be 1.031 ± 0.0034.

Regarding GGGGTAGGGT, the switch fluorescence ratio worked out at 0.997 ± 0.032. In the case of CGTGAAAGCT, the switch fluorescence ratio was 1.18 ± 0.037. Turning to AAAAGGAG, the switch fluorescence ratio worked out at 1.01 ± 0.016. The figure for GACAGTTAGC is 1.03 ± 0.013; for ATTCACCGGA it is 1.031 ± 0.0044. On to AGGGGTCAAT, for which the switch fluorescence ratio amounted to 0.997 ± 0.0012. Take TGCTGGGGAT: the switch fluorescence ratio came to 1.009 ± 0.0015.
